Laboratory results taken from paper PMC9482650, “Quantitative fragmentomics allow affinity mapping of interactomes” (Nature Communications, 2022).
Each block holds one binder with its values, some of them ahead of it.

Tests used:
Test in all cases: holdup assay
Set-up in all cases: key: below the threshold = too weak to quantify, mostly under pKd 3.1 to 4
APBA1_1, Q02410 = target: T1, APBA1_1, Q02410
T1 sequence (Q02410 651-752, limits assumed, looked up): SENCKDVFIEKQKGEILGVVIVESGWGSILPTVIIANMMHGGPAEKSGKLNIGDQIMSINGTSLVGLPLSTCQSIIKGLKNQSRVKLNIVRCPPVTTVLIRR

ARHGEF12, Q9NZN5-2 = target: ARHGEF12, Q9NZN5-2
ARHGEF12, Q9NZN5-2, sequence (Q9NZN5 other isoform, or with tags, fused parts or gaps): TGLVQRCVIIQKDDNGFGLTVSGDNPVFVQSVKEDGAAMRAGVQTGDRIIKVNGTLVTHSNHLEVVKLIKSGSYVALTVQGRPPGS

DLG1_1, Q12959 = target: DLG1_1, Q12959
DLG3_1, Q92796 = target: T2, DLG3_1, Q92796
T2 sequence (Q92796 125-227, limits assumed, looked up): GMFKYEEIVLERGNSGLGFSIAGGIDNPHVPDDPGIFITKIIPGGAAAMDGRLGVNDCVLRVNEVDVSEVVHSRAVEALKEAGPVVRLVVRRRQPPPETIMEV

DLG3_3, Q92796 = target: T3, DLG3_3, Q92796
T3 sequence (Q92796 374-475, limits assumed, looked up): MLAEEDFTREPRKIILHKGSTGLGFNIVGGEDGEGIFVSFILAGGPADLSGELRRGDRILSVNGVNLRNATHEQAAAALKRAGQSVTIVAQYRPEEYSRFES

FRMPD3, Q5JV73 = target: FRMPD3, Q5JV73
FRMPD3, Q5JV73, sequence (Q5JV73 12-100): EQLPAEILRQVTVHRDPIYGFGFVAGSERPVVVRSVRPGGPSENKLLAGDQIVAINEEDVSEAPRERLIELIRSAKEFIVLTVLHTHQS

FRMPD4, Q14CM0 = target: FRMPD4, Q14CM0
FRMPD4, Q14CM0, sequence (Q14CM0 67-160): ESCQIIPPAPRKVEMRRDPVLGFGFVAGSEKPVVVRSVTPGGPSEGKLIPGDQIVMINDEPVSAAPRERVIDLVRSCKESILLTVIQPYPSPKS

GIPC2, Q8TF65 = target: GIPC2, Q8TF65
GIPC2, Q8TF65, sequence (Q8TF65 112-203): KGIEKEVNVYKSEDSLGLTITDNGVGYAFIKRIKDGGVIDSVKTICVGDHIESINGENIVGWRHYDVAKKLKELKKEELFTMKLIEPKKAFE

GRIP1_3, Q9Y3R0 = target: T4, GRIP1_3, Q9Y3R0
T4 sequence (Q9Y3R0 247-346, limits assumed, looked up): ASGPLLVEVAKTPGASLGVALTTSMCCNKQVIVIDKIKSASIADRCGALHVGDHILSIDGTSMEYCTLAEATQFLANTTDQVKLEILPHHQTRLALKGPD

GRIP1_5, Q9Y3R0 = target: T5, GRIP1_5, Q9Y3R0
T5 sequence (Q9Y3R0 568-668, limits assumed, looked up): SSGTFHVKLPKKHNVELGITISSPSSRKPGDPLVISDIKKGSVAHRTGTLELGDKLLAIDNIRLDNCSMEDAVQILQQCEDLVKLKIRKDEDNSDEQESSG

IL16_3, Q14005 = target: IL16_3, Q14005
IL16_3, Q14005, sequence (Q14005 1107-1207): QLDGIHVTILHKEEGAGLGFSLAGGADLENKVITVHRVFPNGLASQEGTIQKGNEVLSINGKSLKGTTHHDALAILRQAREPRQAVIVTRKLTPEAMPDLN

IL16_4, Q14005 = target: IL16_4, Q14005
IL16_4, Q14005, sequence (Q14005 1229-1329): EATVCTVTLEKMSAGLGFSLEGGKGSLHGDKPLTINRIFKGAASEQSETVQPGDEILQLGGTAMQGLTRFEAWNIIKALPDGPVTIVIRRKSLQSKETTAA

Inadl_3, Q8NI35 = target: Inadl_3, Q8NI35
Inadl_3, Q8NI35, sequence (Q8NI35 359-469): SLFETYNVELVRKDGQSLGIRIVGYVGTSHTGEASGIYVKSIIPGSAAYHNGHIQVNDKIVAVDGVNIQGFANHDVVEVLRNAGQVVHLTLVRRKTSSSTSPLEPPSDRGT

Inadl_4, Q8NI35 = target: Inadl_4, Q8NI35
Inadl_4, Q8NI35, sequence (Q8NI35 547-651): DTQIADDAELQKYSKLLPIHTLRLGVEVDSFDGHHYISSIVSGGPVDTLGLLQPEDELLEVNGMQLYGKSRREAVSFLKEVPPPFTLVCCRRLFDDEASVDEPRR

Inadl_9, Q8NI35 = target: Inadl_9, Q8NI35
Inadl_9, Q8NI35, sequence (Q8NI35 1530-1615): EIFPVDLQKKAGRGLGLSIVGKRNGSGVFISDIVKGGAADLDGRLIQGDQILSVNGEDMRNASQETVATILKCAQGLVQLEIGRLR

LAP2, Q96RT1 = target: LAP2, Q96RT1
LAP2, Q96RT1, sequence (Q96RT1 other isoform, or with tags, fused parts or gaps): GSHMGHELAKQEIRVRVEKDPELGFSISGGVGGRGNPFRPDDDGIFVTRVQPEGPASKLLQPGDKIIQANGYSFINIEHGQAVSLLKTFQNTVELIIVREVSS

LNX2_2, Q8N448 = target: T6, LNX2_2, Q8N448
T6 sequence (Q8N448 334-432, limits assumed, looked up): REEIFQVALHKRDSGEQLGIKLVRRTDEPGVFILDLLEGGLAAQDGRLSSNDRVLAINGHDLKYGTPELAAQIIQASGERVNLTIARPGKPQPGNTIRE

MAGI1_2, Q96QZ7 = target: MAGI1_2, Q96QZ7
MAGI1_2, Q96QZ7, sequence (Q96QZ7 456-580): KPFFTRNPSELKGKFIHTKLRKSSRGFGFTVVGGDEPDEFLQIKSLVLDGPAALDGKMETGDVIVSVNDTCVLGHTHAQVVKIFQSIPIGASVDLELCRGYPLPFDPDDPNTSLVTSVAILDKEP

MAGI2_2, Q86UL8 = target: MAGI2_2, Q86UL8
MAGI2_2, Q86UL8, sequence (Q86UL8 410-522): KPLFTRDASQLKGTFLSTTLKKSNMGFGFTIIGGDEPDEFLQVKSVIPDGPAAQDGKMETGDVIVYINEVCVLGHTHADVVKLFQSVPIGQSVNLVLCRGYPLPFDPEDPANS

MAGI2_5, Q86UL8 = target: MAGI2_5, Q86UL8
MAGI2_5, Q86UL8, sequence (Q86UL8 915-1017): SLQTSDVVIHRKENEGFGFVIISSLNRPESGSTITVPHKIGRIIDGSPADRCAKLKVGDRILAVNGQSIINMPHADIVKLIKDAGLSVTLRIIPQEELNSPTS

MPDZ_12, O75970 = target: T7, MPDZ_12, O75970
T7 sequence (O75970 1857-1958, limits assumed, looked up): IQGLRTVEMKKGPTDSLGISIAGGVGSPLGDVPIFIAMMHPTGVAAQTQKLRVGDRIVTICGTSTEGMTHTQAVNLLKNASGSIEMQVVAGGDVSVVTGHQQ

MPDZ_5, O75970 = target: T8, MPDZ_5, O75970
T8 sequence (O75970 695-796, limits assumed, looked up): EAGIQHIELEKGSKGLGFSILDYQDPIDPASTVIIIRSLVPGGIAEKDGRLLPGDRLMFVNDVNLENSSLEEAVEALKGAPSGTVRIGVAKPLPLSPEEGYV

NOS1, P29475 = target: NOS1, P29475
NOS1, P29475, sequence (P29475 9-101): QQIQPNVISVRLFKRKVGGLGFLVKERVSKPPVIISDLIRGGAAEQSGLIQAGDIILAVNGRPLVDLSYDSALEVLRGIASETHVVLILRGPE

PCLO, Q9Y6V0 = target: T9, PCLO, Q9Y6V0
T9 sequence (Q9Y6V0 4491-4600, limits assumed, looked up): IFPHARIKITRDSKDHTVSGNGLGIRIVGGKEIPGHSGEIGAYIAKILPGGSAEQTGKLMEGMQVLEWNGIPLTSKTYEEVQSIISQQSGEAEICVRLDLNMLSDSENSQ

PDZRN3_1, Q9UPQ7 = target: T10, PDZRN3_1, Q9UPQ7
T10 sequence (Q9UPQ7 244-349, limits assumed, looked up): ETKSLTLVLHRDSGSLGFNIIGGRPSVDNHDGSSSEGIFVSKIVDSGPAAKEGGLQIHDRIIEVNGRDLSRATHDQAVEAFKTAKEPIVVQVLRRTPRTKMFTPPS

RHPN1, Q8TCX5 = target: T11, RHPN1, Q8TCX5
T11 sequence (Q8TCX5 508-602, limits assumed, looked up): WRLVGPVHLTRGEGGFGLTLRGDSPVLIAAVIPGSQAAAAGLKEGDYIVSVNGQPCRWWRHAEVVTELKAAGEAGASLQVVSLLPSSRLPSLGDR

[1] = plain residues with an end cap or a label only (N-terminal biotin on a linker: ahx)
[2] = plain residues with an end cap or a label only (N-terminal biotin on a linker: ado-ado)
[3] = plain residues with an end cap or a label only (N-terminal biotin on a linker: ttds)

pKd (APBA1_1, Q02410; [1]): below the threshold
pKd (ARHGEF12, Q9NZN5-2; [1]): below the threshold
pKd (DLG1_1, Q12959; [1]): below the threshold
pKd (DLG3_1, Q92796; [1]): below the threshold
pKd (DLG3_3, Q92796; [1]): below the threshold
pKd (FRMPD3, Q5JV73; [1]): 4.66
pKd (FRMPD4, Q14CM0; [1]): 4.65
pKd (GIPC2, Q8TF65; [1]): below the threshold
pKd (GRIP1_3, Q9Y3R0; [1]): below the threshold
pKd (GRIP1_5, Q9Y3R0; [1]): below the threshold
pKd (IL16_3, Q14005; [1]): below the threshold
pKd (IL16_4, Q14005; [1]): below the threshold
pKd (Inadl_3, Q8NI35; [1]): 3.95
pKd (Inadl_4, Q8NI35; [1]): below the threshold
pKd (Inadl_9, Q8NI35; [1]): below the threshold
pKd (LAP2, Q96RT1; [1]): below the threshold
pKd (LNX2_2, Q8N448; [1]): below the threshold
pKd (MAGI1_2, Q96QZ7; [1]): below the threshold
pKd (MAGI2_2, Q86UL8; [1]): below the threshold
pKd (MAGI2_5, Q86UL8; [1]): 3.54
pKd (MPDZ_12, O75970; [1]): below the threshold
pKd (MPDZ_5, O75970; [1]): 4.22
pKd (NOS1, P29475; [1]): 3.83
pKd (PCLO, Q9Y6V0; [1]): below the threshold
pKd (PDZRN3_1, Q9UPQ7; [1]): below the threshold
pKd (RHPN1, Q8TCX5; [1]): below the threshold
Binder: VNENQKEYFF [CNTNAP4, Q9C0A0]

pKd (APBA1_1, Q02410; [1]): below the threshold
pKd (ARHGEF12, Q9NZN5-2; [1]): below the threshold
pKd (DLG1_1, Q12959; [1]): below the threshold
pKd (DLG3_1, Q92796; [1]): below the threshold
pKd (DLG3_3, Q92796; [1]): below the threshold
pKd (FRMPD3, Q5JV73; [1]): 4.7
pKd (FRMPD4, Q14CM0; [1]): 4.42
pKd (GIPC2, Q8TF65; [1]): below the threshold
pKd (GRIP1_3, Q9Y3R0; [1]): below the threshold
pKd (GRIP1_5, Q9Y3R0; [1]): below the threshold
pKd (IL16_3, Q14005; [1]): below the threshold
pKd (IL16_4, Q14005; [1]): below the threshold
pKd (Inadl_3, Q8NI35; [1]): 3.89
pKd (Inadl_4, Q8NI35; [1]): below the threshold
pKd (Inadl_9, Q8NI35; [1]): below the threshold
pKd (LAP2, Q96RT1; [1]): below the threshold
pKd (LNX2_2, Q8N448; [1]): below the threshold
pKd (MAGI1_2, Q96QZ7; [1]): below the threshold
pKd (MAGI2_2, Q86UL8; [1]): below the threshold
pKd (MAGI2_5, Q86UL8; [1]): 3.96
pKd (MPDZ_12, O75970; [1]): below the threshold
pKd (MPDZ_5, O75970; [1]): below the threshold
pKd (NOS1, P29475; [1]): below the threshold
pKd (PCLO, Q9Y6V0; [1]): below the threshold
pKd (PDZRN3_1, Q9UPQ7; [1]): below the threshold
pKd (RHPN1, Q8TCX5; [1]): 4.11
Binder: KEYDDELTFF [USH1C, Q9Y6N9]

pKd (APBA1_1, Q02410; [2]): below the threshold
pKd (ARHGEF12, Q9NZN5-2; [2]): below the threshold
pKd (DLG1_1, Q12959; [2]): below the threshold
pKd (DLG3_1, Q92796; [2]): below the threshold
pKd (DLG3_3, Q92796; [2]): below the threshold
pKd (FRMPD3, Q5JV73; [2]): below the threshold
pKd (FRMPD4, Q14CM0; [2]): below the threshold
pKd (GIPC2, Q8TF65; [2]): below the threshold
pKd (GRIP1_3, Q9Y3R0; [2]): below the threshold
pKd (GRIP1_5, Q9Y3R0; [2]): below the threshold
pKd (IL16_3, Q14005; [2]): below the threshold
pKd (IL16_4, Q14005; [2]): below the threshold
pKd (Inadl_3, Q8NI35; [2]): below the threshold
pKd (Inadl_4, Q8NI35; [2]): below the threshold
pKd (Inadl_9, Q8NI35; [2]): below the threshold
pKd (LAP2, Q96RT1; [2]): below the threshold
pKd (LNX2_2, Q8N448; [2]): below the threshold
pKd (MAGI1_2, Q96QZ7; [2]): below the threshold
pKd (MAGI2_2, Q86UL8; [2]): below the threshold
pKd (MAGI2_5, Q86UL8; [2]): below the threshold
pKd (MPDZ_12, O75970; [2]): below the threshold
pKd (MPDZ_5, O75970; [2]): below the threshold
pKd (NOS1, P29475; [2]): below the threshold
pKd (PCLO, Q9Y6V0; [2]): below the threshold
pKd (PDZRN3_1, Q9UPQ7; [2]): below the threshold
pKd (RHPN1, Q8TCX5; [2]): 3.55
Binder: EKPIDSETKM [SLC1A3, P43003]

pKd (APBA1_1, Q02410; [2]): below the threshold
pKd (ARHGEF12, Q9NZN5-2; [2]): below the threshold
pKd (DLG1_1, Q12959; [2]): below the threshold
pKd (DLG3_1, Q92796; [2]): below the threshold
pKd (DLG3_3, Q92796; [2]): below the threshold
pKd (FRMPD3, Q5JV73; [2]): below the threshold
pKd (FRMPD4, Q14CM0; [2]): below the threshold
pKd (GIPC2, Q8TF65; [2]): 3.68
pKd (GRIP1_3, Q9Y3R0; [2]): below the threshold
pKd (GRIP1_5, Q9Y3R0; [2]): below the threshold
pKd (IL16_3, Q14005; [2]): below the threshold
pKd (IL16_4, Q14005; [2]): below the threshold
pKd (Inadl_3, Q8NI35; [2]): below the threshold
pKd (Inadl_4, Q8NI35; [2]): below the threshold
pKd (Inadl_9, Q8NI35; [2]): below the threshold
pKd (LAP2, Q96RT1; [2]): below the threshold
pKd (LNX2_2, Q8N448; [2]): below the threshold
pKd (MAGI1_2, Q96QZ7; [2]): below the threshold
pKd (MAGI2_2, Q86UL8; [2]): below the threshold
pKd (MAGI2_5, Q86UL8; [2]): below the threshold
pKd (MPDZ_12, O75970; [2]): below the threshold
pKd (MPDZ_5, O75970; [2]): below the threshold
pKd (NOS1, P29475; [2]): below the threshold
pKd (PCLO, Q9Y6V0; [2]): below the threshold
pKd (PDZRN3_1, Q9UPQ7; [2]): below the threshold
pKd (RHPN1, Q8TCX5; [2]): 3.75
Binder: DAAHHDESNC [FMNL3, Q8IVF7]

pKd (APBA1_1, Q02410; [3]): below the threshold
pKd (ARHGEF12, Q9NZN5-2; [3]): 4.06
pKd (DLG1_1, Q12959; [3]): 3.79
pKd (DLG3_1, Q92796; [3]): 3.3
pKd (DLG3_3, Q92796; [3]): 4.77
pKd (FRMPD3, Q5JV73; [3]): below the threshold
pKd (FRMPD4, Q14CM0; [3]): below the threshold
pKd (GIPC2, Q8TF65; [3]): 3.58
pKd (GRIP1_3, Q9Y3R0; [3]): below the threshold
pKd (GRIP1_5, Q9Y3R0; [3]): below the threshold
pKd (IL16_3, Q14005; [3]): below the threshold
pKd (IL16_4, Q14005; [3]): below the threshold
pKd (Inadl_3, Q8NI35; [3]): below the threshold
pKd (Inadl_4, Q8NI35; [3]): below the threshold
pKd (Inadl_9, Q8NI35; [3]): below the threshold
pKd (LAP2, Q96RT1; [3]): 3.37
pKd (LNX2_2, Q8N448; [3]): below the threshold
pKd (MAGI1_2, Q96QZ7; [3]): 3.91
pKd (MAGI2_2, Q86UL8; [3]): 4.03
pKd (MAGI2_5, Q86UL8; [3]): below the threshold
pKd (MPDZ_12, O75970; [3]): below the threshold
pKd (MPDZ_5, O75970; [3]): below the threshold
pKd (NOS1, P29475; [3]): 3.52
pKd (PCLO, Q9Y6V0; [3]): below the threshold
pKd (PDZRN3_1, Q9UPQ7; [3]): 4.37
pKd (RHPN1, Q8TCX5; [3]): 3.92
Binder: PSRDRKETSI [RALBP1, Q15311]
